According to PMC5551644 (Biochemistry, 2016):
Read-outs that look alike come from different tables or passages of the source.

What was measured:
Experiment in all cases: SPR
[1] = molecular target: T1, TGF-β type II receptor extracellular domain (UniProt P37173 23-166)
[2] = molecular target: T1, TGF-β type II receptor extracellular …; remark: listed apart in the source
[3] = molecular target: T1, TGF-β type II receptor extracellular …; remark: listed apart in the source

T1 sequence (P37173 23-166): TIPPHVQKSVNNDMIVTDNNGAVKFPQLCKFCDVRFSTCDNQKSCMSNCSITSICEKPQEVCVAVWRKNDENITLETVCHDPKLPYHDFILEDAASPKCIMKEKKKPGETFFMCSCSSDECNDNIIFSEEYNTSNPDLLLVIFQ

Kd [1]: 2.9 ± 1.1 µM
Kd [2]: 9.4 ± 2.2 µM
Kd [3]: 4.6 ± 0.7 µM
B1: Transforming growth factor β2 (TGF-β2), recombinant human (ligand, UniProt P61812 303-414, looked up)
chain: ALDAAYCFRNVQDNCCLRPLYIDFKRDLGWKWIHEPKGYNANFCAGACPYLWSSDTQHSRVLSLYNTINPEASASPCCVSQDLEPLTILYYIGKTPKIEQLSNMIVKSCKCS
modifications: biotinylated for SPR (EZ-Link Amine-PEG3-biotin with EDC/Sulfo-NHS; for the experiments of Table S1 sulfo-NHS-LC-LC-Biotin)
